According to publication PMC5689087 (Structure (London, England : 1993), 2017):
Where no end group is shown, it is not given here. The star is where a group is joined. FITC = O=C1OC2(c3ccc(O)cc3Oc3cc(O)ccc32)c2ccc(NC(=S)*)cc21

B1: Fab LM609 (recombinant antigen-binding fragment of the mouse monoclonal antibody LM609) (Fab, V domains shown)
VH: EVQLEESGGGLVKPGGSLKLSCAASGFAFSSYDMSWVRQIPEKRLEWVAKVSSGGGSTYYLDTVQGRFTISRDNAKNTLYLQMSSLNSEDTAMYYCARHNYGSFAYWGQGTLVTVSA
VL: ELVMTQTPATLSVTPGDSVSLSCRASQSISNHLHWYQQKSHESPRLLIKYASQSISGIPSRFSGSGSGTDFTLSINSVETEDFGMYFCQQSNSWPHTFGGGTKLEIK

Columns and labels:
[1] = molecular target: human αVβ3 integrin ectodomain (purchased, lyophilized) (human, UniProt P06756;P05106); test: SPR
human αVβ3 integrin ectodomain (purchased, lyophilized) (human, UniProt P06756;P05106), sequence (P06756 31-992, chain 1 of 2): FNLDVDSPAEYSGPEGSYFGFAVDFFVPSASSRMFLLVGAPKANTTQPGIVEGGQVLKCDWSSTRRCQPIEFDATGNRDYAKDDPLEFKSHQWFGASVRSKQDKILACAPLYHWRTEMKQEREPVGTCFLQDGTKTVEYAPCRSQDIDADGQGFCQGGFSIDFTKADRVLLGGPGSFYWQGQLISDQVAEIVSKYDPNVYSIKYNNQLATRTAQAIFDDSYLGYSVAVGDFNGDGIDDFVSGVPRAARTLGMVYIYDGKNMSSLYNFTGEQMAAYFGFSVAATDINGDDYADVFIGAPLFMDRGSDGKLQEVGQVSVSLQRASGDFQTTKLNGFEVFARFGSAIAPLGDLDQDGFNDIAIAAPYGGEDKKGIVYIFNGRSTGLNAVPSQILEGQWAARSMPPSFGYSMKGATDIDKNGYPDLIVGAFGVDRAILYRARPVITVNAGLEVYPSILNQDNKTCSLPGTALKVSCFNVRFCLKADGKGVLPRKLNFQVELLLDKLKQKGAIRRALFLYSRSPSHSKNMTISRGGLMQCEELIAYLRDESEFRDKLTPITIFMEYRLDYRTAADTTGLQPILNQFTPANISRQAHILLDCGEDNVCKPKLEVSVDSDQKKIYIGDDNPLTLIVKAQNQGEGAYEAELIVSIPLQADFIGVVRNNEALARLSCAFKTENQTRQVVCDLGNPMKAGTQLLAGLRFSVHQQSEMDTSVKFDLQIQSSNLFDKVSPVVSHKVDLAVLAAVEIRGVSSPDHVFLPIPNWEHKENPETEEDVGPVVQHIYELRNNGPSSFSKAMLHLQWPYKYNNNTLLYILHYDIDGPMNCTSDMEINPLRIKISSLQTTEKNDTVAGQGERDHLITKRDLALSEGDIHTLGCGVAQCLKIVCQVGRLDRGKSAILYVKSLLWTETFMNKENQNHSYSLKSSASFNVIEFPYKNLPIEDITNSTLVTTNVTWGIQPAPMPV
human αVβ3 integrin ectodomain (purchased, lyophilized) (human, UniProt P06756;P05106), sequence (P05106 27-718, chain 2 of 2): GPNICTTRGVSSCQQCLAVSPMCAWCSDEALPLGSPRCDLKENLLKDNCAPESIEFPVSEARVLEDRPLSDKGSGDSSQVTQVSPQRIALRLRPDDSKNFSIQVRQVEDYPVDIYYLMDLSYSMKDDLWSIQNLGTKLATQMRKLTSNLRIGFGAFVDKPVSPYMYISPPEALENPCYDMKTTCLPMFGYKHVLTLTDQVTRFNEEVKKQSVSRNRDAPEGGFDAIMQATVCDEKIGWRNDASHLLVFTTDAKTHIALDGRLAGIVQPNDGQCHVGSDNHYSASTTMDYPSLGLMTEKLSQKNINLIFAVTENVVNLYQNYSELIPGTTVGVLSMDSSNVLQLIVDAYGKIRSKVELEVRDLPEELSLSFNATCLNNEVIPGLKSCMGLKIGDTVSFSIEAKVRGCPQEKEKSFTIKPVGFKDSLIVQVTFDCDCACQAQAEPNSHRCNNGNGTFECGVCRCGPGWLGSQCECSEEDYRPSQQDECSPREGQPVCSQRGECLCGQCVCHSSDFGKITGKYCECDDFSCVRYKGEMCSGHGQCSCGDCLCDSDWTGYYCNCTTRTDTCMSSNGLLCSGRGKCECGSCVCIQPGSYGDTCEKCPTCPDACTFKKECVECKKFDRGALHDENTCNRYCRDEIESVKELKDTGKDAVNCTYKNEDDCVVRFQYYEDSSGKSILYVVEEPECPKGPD

[2] = molecular target: human αVβ3 integrin ectodomain (purchased, lyophilized) (human, UniProt P06756 31-992; P05106 27-718); test: SEC
human αVβ3 integrin ectodomain (purchased, lyophilized) (human, UniProt P06756 31-992; P05106 27-718), sequence (P06756 31-992, chain 1 of 2): as the sequence (P06756 31-992, chain 1 of 2) above
human αVβ3 integrin ectodomain (purchased, lyophilized) (human, UniProt P06756 31-992; P05106 27-718), sequence (P05106 27-718, chain 2 of 2): as the sequence (P05106 27-718, chain 2 of 2) above

Binder | Kd [1] [nM] | koff [1] [s⁻¹] | kon [1] [M⁻¹ s⁻¹] | binding result [2]
B1 | 23 | 0.0034 | 150000 | 
{FITC}-GRGDSPK [FITC-GRGDSPK peptide] |  |  |  | binds
